Measured values taken from patent publication US20240294945A1.

What was measured:
Assay in all cases: cell-based or functional assay
[1] = biological target: right-TALE:G1333-C, mtND1-targeted DdCBE subunit (Burkholderia cenocepacia)
[2] = biological target: TALE-free DddAtox half G1333-C (Burkholderia cenocepacia) (UniProt P0DUH5)
[3] = biological target: TALE-free DddAtox half G1397-C (Burkholderia cenocepacia)
[4] = biological target: right-TALE:G1397C (the C-terminal G1397 DddAtox half fused to the C-terminus of the right-TALE array (Burkholderia cenocepacia))
[5] = biological target: TALE-free DddAtox half G1397-N (Burkholderia cenocepacia) (UniProt P0DUH5)
[6] = biological target: TALE-free DddAtox half G1333-N (Burkholderia cenocepacia) (UniProt P0DUH5)

In the case of “left-TALE:G1333-N, mtND1-targeted DdCBE subunit”, the base editing efficiency at position C8 of the mtND1 target, HEK293T [1] is reported as 56.1% and the base editing efficiency at position C8 of the mtND1 target, HEK293T [2] is reported as 32.7%.
For “left-TALE:G1397N (the N-terminal G1397 DddAtox half fused to the C-terminus of the left-TALE array),”, the base editing efficiency at the mtND1 target, HEK293T [3] was 31% and the cytosine-to-thymine editing efficiency at C11 of the mtND1 target, HEK293T [4] was 60.7%.
Substance “right-TALE:G1397C (the C-terminal G1397 DddAtox half fused to the C-terminus of the right-TALE array” has a base editing efficiency at the mtND1 target, HEK293T [5] of 8.1%.
“right-TALE:G1333-C, mtND1-targeted DdCBE subunit” gave a base editing efficiency at position C8 of the mtND1 target, HEK293T [6] of 18.1%.
